Results published in patent US20230348614A1 (VISTERRA, published 2023).
Numbering of substitutions follows the chain as printed.

Legend:
[1] = target: T1, CD138 on the surface of U266 cells (CD138+ human lymphoblastic myeloma cell line) (human, UniProt P18827 23-310); experiment: flow cytometry on U266 cells at pH 6.0, MFI against antibody concentration (0.01-10 ug/mL)
T1 construct: whole, on cells; also called cell surface CD138; membrane CD138
T1 sequence (looked up): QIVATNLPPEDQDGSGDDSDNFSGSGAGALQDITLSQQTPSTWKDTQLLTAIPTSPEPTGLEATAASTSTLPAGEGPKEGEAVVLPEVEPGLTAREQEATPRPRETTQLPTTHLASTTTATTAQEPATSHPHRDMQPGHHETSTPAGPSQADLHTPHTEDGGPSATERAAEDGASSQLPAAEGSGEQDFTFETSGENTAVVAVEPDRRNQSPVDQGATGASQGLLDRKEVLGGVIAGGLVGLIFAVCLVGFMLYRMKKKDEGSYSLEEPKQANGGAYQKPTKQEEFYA
Description: (§1) Antibody binding to membrane CD138 was evaluated using the CD138+ human lymphoblastic myeloma cell line (U266) and quantified by flow cytometry. Cells were grown in RPMI1640 with 10% FBS. […] Cells were washed (1X) with same pH-matched buffer (and as throughout the experiment) followed by incubation with secondary (detection) goat anti-human Fab( Jackson Immuno Research) conjugated with Alexa Fluor-488 for 30 minutes also at either pH 6.0 or 7.4. Cells were washed once more and resuspended in matching pH buffer and evaluated by flow cytometry. Antibody cell binding was reported as geometric mean fluorescence intensity (MFI). Dose-response curves were generated using GraphPad Prism. Binding data were plotted using nonlinear regression analysis and a 4-parameter curve fit.

[2] = target: T1, CD138 on the surface of U266 cells …; experiment: flow cytometry on U266 cells at pH 6, MFI against antibody concentration (about 0.03-30 ug/mL)
Description: as §1
(§2) Binding was evaluated as described.

[3] = target: T1, CD138 on the surface of U266 cells …; experiment: flow cytometry on U266 cells at pH 6.0, MFI against antibody concentration (0.04-10 ug/mL shown)
Description: as §1

[4] = target: T2, Recombinant soluble human CD138 extracellular domain (analyte in SPR) (human, UniProt P18827 23-254); experiment: SPR (Carterra LSA): antibody captured by anti-human IgG, CD138 as analyte, pH 6.0, 1:1 fit; pH 6.0, SPR
T2 construct: extracellular domain; also called recombinant CD138 (the antigen)
T2 sequence (looked up): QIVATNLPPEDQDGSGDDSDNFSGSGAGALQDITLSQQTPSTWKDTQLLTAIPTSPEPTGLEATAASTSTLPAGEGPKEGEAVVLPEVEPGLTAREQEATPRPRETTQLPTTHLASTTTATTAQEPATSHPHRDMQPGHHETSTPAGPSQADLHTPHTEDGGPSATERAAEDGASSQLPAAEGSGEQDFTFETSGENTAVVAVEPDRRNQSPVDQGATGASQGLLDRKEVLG
From the text: (§3) This method as described, immobilizes the target (recombinant CD138) through biotinylation-streptavidin capture. Such a method may, in principle, lead to biases in binding due to either chemical modification of the capture ligand and/or avidity effects due to immobilization of this ligand on the biosensor. Moreover, this method depends on diffusion-based principles of dissociation leading to non-equilibrium binding states. Surface plasmon resonance is an orthogonal, commonly used method for determining binding kinetics and deriving affinity values based on these parameters. In this method, antibodies were directly coupled to the sensor chip and probed with several concentrations of recombinant CD138 (the antigen) varying from 100 nM to 41 nM. This evaluation was completed under two different pH conditions, i.e., pH 6.0 and pH […].
(§4) Antibody-CD138 binding was evaluated on a Carterra LSA high throughput SPR instrument. Binding experiments were carried out using binding buffer comprising 100 mM sodium phosphate, 150 mM NaCl and 0.05% Tween-20 buffer. Buffers were adjusted to target pH of 7.4 and 6.0, by use of sodium hydroxide or HCL, respectively. All steps were also carried out independently at these respective buffer pHs. Antibodies were captured on the SPR (CMDP) chip using an anti-human IgG covalently coupled to the CMDP chip based on standard protocols, as described by the instrument manufacturer, and to create a uniform lawn on the chip surface at a target 25 nM anti-CD138 antibody concentration. Binding to CD138 was achieved by uniformly passing binding analyte with increasing concentrations of CD138 (41 nM-100 nM) for 15 minutes and allowing dissociation for 20 minutes. Analyte was flowed over the chip at a rate of 2 milliliters/minute. Raw binding data were processed using kinetics data analysis software also provided by the manufacturer (Carterra) following as 2X background subtraction that used the first six injections of buffer blanks and the internal machine reference controls. Kinetic data was analysed using a global fit and assuming a 1:1 binding interaction. Further analysis of individual binding curves (sensorgrams) with best fits were used to refine the calculation of kinetic parameters.

[5] = target: T1, CD138 on the surface of U266 cells …; experiment: flow cytometry on U266 cells at pH 6.5, MFI against antibody concentration (about 0.03-30 ug/mL)
[6] = target: T3, Biotinylated recombinant soluble human CD138 extracellular domain (Sino Biological, Cat. 11429-H08H) (human, UniProt P18827 18-251, biotin (EZ-Link NHS-SS-PEG4 Biotin) on primary amino groups of lysines, protein:biotin 1:20); experiment: BLI (Octet): biotinylated CD138 (10 nM) on streptavidin tips, antibody 12.5 and 25 nM, pH 6.0, 1:1 fit; pH 6.0
T3 construct: range 18-251; Bought reagent; The limits are printed as approximate; also called biotinylated CD138; recombinant CD138
T3 sequence (looked up): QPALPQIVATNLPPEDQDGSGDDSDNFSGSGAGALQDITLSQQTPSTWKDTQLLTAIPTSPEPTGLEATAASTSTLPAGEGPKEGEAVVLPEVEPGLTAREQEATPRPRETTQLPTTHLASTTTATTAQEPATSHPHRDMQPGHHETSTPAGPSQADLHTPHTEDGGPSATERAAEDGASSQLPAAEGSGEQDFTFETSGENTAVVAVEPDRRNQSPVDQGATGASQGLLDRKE
Description: (§5) Binding experiments were carried using assay buffer comprised of 100 mM Sodium Phosphate+ 150 mM NaCl + 0.02% Tween-20 and adjusted to target pH of 7.4, 6.0, 6.4, or 6 using appropriate ratios of monobasic and dibasic sodium phosphate buffer. 25 nM biotinylated CD138 was loaded onto Streptavidin capture Octet (SA) tips for 120 seconds (antigen loading step) followed by antibody binding for associated for 300 seconds (association step), and subsequently dissociation for 300 seconds (dissociation step). All steps were carried out at the respective target pH using the corresponding pH adjusted buffers.
(§6) Modifications to this protocol included lowering the loading concentration of biotinylated CD138 from 25 nM to 10 nM and varying the test antibody concentrations ranging from 25 nM down to 0.8 nM (as 2-fold dilutions). The rationale for doing so was to potentially reduce any target avidity effects while also looking at the analyte concentration dependency.
(§7) Data were analyzed for purposes of calculating approximate kinetic binding parameters and apparent binding affinities based on these rates. Data was fit assuming a 1:1 binding model.

[7] = target: T2, Recombinant soluble human CD138 …; experiment: SPR (Carterra LSA): antibody captured by anti-human IgG, CD138 as analyte, pH 6.0, 1:1 fit
From the text: as §3
Antibody-CD138 binding was evaluated on a Carterra LSA high throughput SPR instrument. Binding experiments were carried out using binding buffer comprising 100 mM sodium phosphate, 150 mM NaCl and 0.05% Tween-20 buffer. Buffers were adjusted to target pH of 7.4 and 6.0, by use of sodium hydroxide or HCL, respectively. All steps were also carried out independently at these respective buffer pHs. […] Kinetic data was analysed using a global fit and assuming a 1:1 binding interaction. […]

[8] = target: T2, Recombinant soluble human CD138 …; experiment: SPR (Carterra LSA): antibody captured by anti-human IgG, CD138 as analyte, pH 7.4, 1:1 fit
From the text: as §3, §4

[9] = target: T3, Biotinylated recombinant soluble human …; experiment: BLI (Octet): biotinylated CD138 (10 nM) on streptavidin tips, antibody 12.5 and 25 nM, pH 6.0, 1:1 fit
Description: as §5, §6, §7

[10] = target: T1, CD138 on the surface of U266 cells …; experiment: flow cytometry on U266 cells at pH 7, MFI against antibody concentration (about 0.03-30 ug/mL)
Description: as §1, §2

[11] = target: T1, CD138 on the surface of U266 cells …; experiment: flow cytometry on U266 cells at pH 7.4, MFI against antibody concentration (about 0.03-30 ug/mL)
Description: as §1, §2

B1: Ab175 (antibody, V domains shown)
VH: EVQLVQSGAEVKKPGASVKVSCKASGYSFSSYYMHWVRQAPGQGLEWMGTIHPSDSTTNYNQKFQGRVTMTVDTSTRTAYMELSSLRSEDTAVYYCADFLYWGQGTTVTVSS
VL: DIVMTQTPLSLSVTPGQPASISCKSSKSLLYKDGHTYLNWFLQKPGQSPQLLIYVVSTRASGVPDRFSGSGSGTDFTLKISRVEAEDVGVYYCQQLVEYPYTFGQGTKLEIK
notes: also called mAb Ab175
EC50 (read off the curve) [1]: ~0.2 µg/mL

B2: Antibody 29-0 (antibody, V domains shown)
VH: B1 VH with H52Y, S54G, D55A, L100V
VL: B1 VL with H35K
notes: also called mAb 29-0
EC50 (read off the curve) [2]: ~0.6 µg/mL
EC50 (read off the curve) [3]: ~0.6 µg/mL
Kd [4]: 28 nM
koff [4]: 0.0042 s⁻¹
kon [4]: 150000 M⁻¹ s⁻¹
EC50 (read off the curve) [5]: ~0.9 µg/mL

B3: Antibody Ab17 (antibody, V domains shown)
VH: B1 VH with L100V
VL: B1 VL
notes: also called mAb 17; Mab 17
EC50 (read off the curve) [1]: ~0.5 µg/mL
Kd [4]: 16 nM
koff [4]: 0.0026 s⁻¹
kon [4]: 170000 M⁻¹ s⁻¹
Kd [6]: 6.2 nM
koff [6]: 0.0051 s⁻¹
kon [6]: 860000 M⁻¹ s⁻¹

B4: Antibody Ab28 (antibody, V domains shown)
VH: B1 VH with H52Y, S54G, L100V
VL: B1 VL with H35K
notes: also called Mab 28
EC50 (read off the curve) [1]: ~0.7 µg/mL
EC50 (read off the curve) [2]: ~0.5 µg/mL
Kd [4]: 12 nM
koff [4]: 0.0026 s⁻¹
kon [4]: 220000 M⁻¹ s⁻¹
EC50 (read off the curve) [5]: ~0.8 µg/mL
Kd [6]: 4 nM
koff [6]: 0.0045 s⁻¹
kon [6]: 1.2e+06 M⁻¹ s⁻¹

B5: Antibody Ab71 (antibody, V domains shown)
VH: B1 VH with E1Q, T50D, D98N, L100V
VL: B1 VL with H35K
koff [7]: 0.0018 s⁻¹
kon [7]: 300000 M⁻¹ s⁻¹
Kd [8]: 21 nM
koff [8]: 0.00028 s⁻¹
kon [8]: 10000 M⁻¹ s⁻¹
Kd [9]: 0.98 nM
koff [9]: 0.0011 s⁻¹
kon [9]: 1.2e+06 M⁻¹ s⁻¹

B6: Antibody Ab137 (antibody, V domains shown)
VH: B1 VH with E1Q, D98N, L100V
VL: B1 VL with H35K, Y54D
EC50 (read off the curve) [2]: ~0.4 µg/mL
Kd [4]: 16 nM
koff [4]: 0.0029 s⁻¹
kon [4]: 180000 M⁻¹ s⁻¹
EC50 (read off the curve) [5]: ~0.7 µg/mL
Kd [6]: 2.9 nM
koff [6]: 0.003 s⁻¹
kon [6]: 1e+06 M⁻¹ s⁻¹

B7: Antibody Ab30 (antibody, V domains shown)
VH: B1 VH with S54E, L100V
VL: B1 VL with H35K
Kd [9]: 4.6 nM
koff [9]: 0.0034 s⁻¹
kon [9]: 720000 M⁻¹ s⁻¹

B8: Antibody Ab32 (antibody, V domains shown)
VH: B1 VH
VL: B1 VL with H35K
EC50 (read off the curve) [1]: ~1 µg/mL
Kd [9]: 6.4 nM
koff [9]: 0.0036 s⁻¹
kon [9]: 560000 M⁻¹ s⁻¹

B9: Antibody Ab43 (antibody, V domains shown)
VH: B1 VH with L100V
VL: B1 VL with H35K, N39L
EC50 (read off the curve) [1]: ~0.5 µg/mL
EC50 (read off the curve) [2]: ~0.6 µg/mL
EC50 (read off the curve) [10]: ~0.9 µg/mL
Kd [9]: 6.5 nM
koff [9]: 0.0041 s⁻¹
kon [9]: 630000 M⁻¹ s⁻¹
EC50 (read off the curve) [5]: ~0.7 µg/mL
EC50 (read off the curve) [11]: ~1 µg/mL
